Results on three molecules are retold here after patent US20260265321A1, “PEPTIDE AND POLYPEPTIDE INHIBITING THE NF-KB SIGNALING PATHWAY” (Centre National de la Recherche Scientifique, priority 2023, published 2026).

T1: G2-p100 1-852 (UniProt Q00653 1-852)
T1 construct: range 1-852; not shown: Gluc2 fragment of Gaussia princeps luciferase and flexible 20 amino acid linker, N-terminal
T1 sequence (looked up): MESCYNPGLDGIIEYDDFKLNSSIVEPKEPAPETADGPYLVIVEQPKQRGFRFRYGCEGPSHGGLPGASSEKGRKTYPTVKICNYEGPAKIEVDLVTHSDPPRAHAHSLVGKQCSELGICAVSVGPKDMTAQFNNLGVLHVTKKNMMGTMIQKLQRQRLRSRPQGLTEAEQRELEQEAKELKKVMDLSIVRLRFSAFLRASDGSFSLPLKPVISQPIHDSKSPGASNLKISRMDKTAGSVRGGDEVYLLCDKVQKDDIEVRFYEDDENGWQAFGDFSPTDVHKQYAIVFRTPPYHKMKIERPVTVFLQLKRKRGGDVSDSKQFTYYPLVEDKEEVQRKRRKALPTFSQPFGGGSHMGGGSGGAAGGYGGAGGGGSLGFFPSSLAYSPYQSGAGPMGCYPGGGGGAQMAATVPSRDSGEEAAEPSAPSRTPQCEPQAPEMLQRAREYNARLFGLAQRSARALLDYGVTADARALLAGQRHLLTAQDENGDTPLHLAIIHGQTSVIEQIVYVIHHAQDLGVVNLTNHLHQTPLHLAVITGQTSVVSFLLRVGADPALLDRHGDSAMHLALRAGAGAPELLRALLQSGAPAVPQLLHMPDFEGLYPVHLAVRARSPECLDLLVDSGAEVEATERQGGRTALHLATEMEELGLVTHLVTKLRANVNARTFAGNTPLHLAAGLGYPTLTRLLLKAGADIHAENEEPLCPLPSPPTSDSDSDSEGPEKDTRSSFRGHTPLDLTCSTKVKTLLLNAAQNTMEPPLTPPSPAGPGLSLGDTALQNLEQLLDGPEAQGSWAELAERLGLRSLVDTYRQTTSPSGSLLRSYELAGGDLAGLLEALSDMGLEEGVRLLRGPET

T2: IKKα(10-667) S176E/S180E homodimer, 6×His tag removed (human, UniProt O15111 10-667)
T2 construct: also called purified IKKα
T2 sequence (looked up): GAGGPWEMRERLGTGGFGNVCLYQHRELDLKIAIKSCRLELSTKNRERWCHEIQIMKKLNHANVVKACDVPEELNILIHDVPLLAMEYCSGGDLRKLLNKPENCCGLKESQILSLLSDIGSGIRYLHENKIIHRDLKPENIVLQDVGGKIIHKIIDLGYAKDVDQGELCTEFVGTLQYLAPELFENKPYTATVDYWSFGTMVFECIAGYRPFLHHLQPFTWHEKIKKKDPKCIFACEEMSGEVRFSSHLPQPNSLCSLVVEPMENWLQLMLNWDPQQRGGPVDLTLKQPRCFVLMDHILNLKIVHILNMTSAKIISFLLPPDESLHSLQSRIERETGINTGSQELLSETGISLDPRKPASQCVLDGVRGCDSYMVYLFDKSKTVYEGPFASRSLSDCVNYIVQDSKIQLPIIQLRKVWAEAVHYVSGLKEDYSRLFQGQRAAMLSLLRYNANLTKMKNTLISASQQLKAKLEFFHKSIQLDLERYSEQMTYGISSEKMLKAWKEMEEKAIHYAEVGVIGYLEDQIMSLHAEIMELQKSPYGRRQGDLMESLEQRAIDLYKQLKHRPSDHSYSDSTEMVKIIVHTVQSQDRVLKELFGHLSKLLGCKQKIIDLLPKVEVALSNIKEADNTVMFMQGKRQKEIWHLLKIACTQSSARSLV

T3: IKKβ(1-669) S177E/S181E homodimer, 6×His tag removed (human, UniProt O14920 1-669)
T3 sequence (looked up): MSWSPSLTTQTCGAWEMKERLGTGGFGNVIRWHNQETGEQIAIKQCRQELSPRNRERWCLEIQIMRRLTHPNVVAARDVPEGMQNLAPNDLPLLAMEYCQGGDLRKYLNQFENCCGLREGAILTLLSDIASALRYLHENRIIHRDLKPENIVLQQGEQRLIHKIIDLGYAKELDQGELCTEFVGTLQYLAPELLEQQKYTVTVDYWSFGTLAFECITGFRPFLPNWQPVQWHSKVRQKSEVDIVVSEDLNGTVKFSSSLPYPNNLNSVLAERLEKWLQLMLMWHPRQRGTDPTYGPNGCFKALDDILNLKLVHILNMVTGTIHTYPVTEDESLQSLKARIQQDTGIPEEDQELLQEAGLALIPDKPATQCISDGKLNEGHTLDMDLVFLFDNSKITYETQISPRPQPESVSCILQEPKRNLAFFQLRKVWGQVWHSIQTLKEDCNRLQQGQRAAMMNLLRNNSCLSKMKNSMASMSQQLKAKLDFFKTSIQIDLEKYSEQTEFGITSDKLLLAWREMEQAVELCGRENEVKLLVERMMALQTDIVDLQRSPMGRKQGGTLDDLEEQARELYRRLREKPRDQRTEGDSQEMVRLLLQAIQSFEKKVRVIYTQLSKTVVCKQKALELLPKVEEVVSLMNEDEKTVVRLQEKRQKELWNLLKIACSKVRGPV

B1: FL YD/SS (other)
chain: MESCYNPGLDGIIESDSFKLNSSIVEPKEPAPETADGPYLVIVEQPKQRGFRFRYGCEGPSHGGLPGASSEKGRKTYPTVKICNYEGPAKIEVDLVTHSDPPRAHAHSLVGKQCSELGICAVSVGPKDMTAQFNNLGVLHVTKKNMMGTMIQKLQRQRLRSRPQGLTEAEQRELEQEAKELKKVMDLSIVRLRFSAFLRASDGSFSLPLKPVISQPIHDSKSPGASNLKISRMDKTAGSVRGGDEVYLLCDKVQKDDIEVRFYEDDENGWQAFGDFSPTDVHKQYAIVFRTPPYHKMKIERPVTVFLQLKRKRGGDVSDSKQFTYYPLVEDKEEVQRKRRKALPTFSQPFGGGSHMGGGSGGAAGGYGGAGGGGSLGFFPSSLAYSPYQSGAGPMGCYPGGGGGAQMAATVPSRDSGEEAAEPSAPSRTPQCEPQAPEMLQRAREYNARLFGLAQRSARALLDYGVTADARALLAGQRHLLTAQDENGDTPLHLAIIHGQTSVIEQIVYVIHHAQDLGVVNLTNHLHQTPLHLAVITGQTSVVSFLLRVGADPALLDRHGDSAMHLALRAGAGAPELLRALLQSGAPAVPQLLHMPDFEGLYPVHLAVRARSPECLDLLVDSGAEVEATERQGGRTALHLATEMEELGLVTHLVTKLRANVNARTFAGNTPLHLAAGLGYPTLTRLLLKAGADIHAENEEPLCPLPSPPTSDSDSDSEGPEKDTRSSFRGHTPLDLTCSTKVKTLLLNAAQNTMEPPLTPPSPAGPGLSLGDTALQNLEQLLDGPEAQGSWAELAERLGLRSLVDTYRQTTSPSGSLLRSYELAGGDLAGLLEALSDMGLEEGVRLLRGPETRDKLPSTAEVKEDSAYGSQSVEQEAEKLGPPPEPPGGLCHGHPQPQVH
notes: also called G2-p100 FL YD/SS; G2-p100 FL Y15S/D17S; not shown: N-terminal Gluc2 fragment of Gaussia princeps luciferase and the flexible 20 amino acid linker (pSPICA-N2)
B2: G1-IKKα, full-length wt IKKα fused to the Gluc1 fragment (enzyme, human, UniProt O15111 1-745, looked up)
chain: MERPPGLRPGAGGPWEMRERLGTGGFGNVCLYQHRELDLKIAIKSCRLELSTKNRERWCHEIQIMKKLNHANVVKACDVPEELNILIHDVPLLAMEYCSGGDLRKLLNKPENCCGLKESQILSLLSDIGSGIRYLHENKIIHRDLKPENIVLQDVGGKIIHKIIDLGYAKDVDQGSLCTSFVGTLQYLAPELFENKPYTATVDYWSFGTMVFECIAGYRPFLHHLQPFTWHEKIKKKDPKCIFACEEMSGEVRFSSHLPQPNSLCSLVVEPMENWLQLMLNWDPQQRGGPVDLTLKQPRCFVLMDHILNLKIVHILNMTSAKIISFLLPPDESLHSLQSRIERETGINTGSQELLSETGISLDPRKPASQCVLDGVRGCDSYMVYLFDKSKTVYEGPFASRSLSDCVNYIVQDSKIQLPIIQLRKVWAEAVHYVSGLKEDYSRLFQGQRAAMLSLLRYNANLTKMKNTLISASQQLKAKLEFFHKSIQLDLERYSEQMTYGISSEKMLKAWKEMEEKAIHYAEVGVIGYLEDQIMSLHAEIMELQKSPYGRRQGDLMESLEQRAIDLYKQLKHRPSDHSYSDSTEMVKIIVHTVQSQDRVLKELFGHLSKLLGCKQKIIDLLPKVEVALSNIKEADNTVMFMQGKRQKEIWHLLKIACTQSSARSLVGSSLEGAVTPQTSAWLPPTSAEHDHSLSCVVTPQDGETSAQMIEENLNCLGHLSTIIHEANEEQGNSMMNLDWSWLTE
notes: Expressed in HEK293T cells for GPCA; full-length; also called Gluc1-IKKα; not shown: Gluc1 fragment of Gaussia princeps luciferase and flexible 20 amino acid linker, N-terminal
B3: synthetic IκBα pep C308L (peptide)
peptide: EFTEDELPYDDLVFGGQRLTL
notes: also called C308L IκBα pep; IkBα pep C308L

Test [1] has as its target B2. As to the kind of experiment: GPCA (Gaussia princeps protein complementation assay), G1-IKKα FL with G2-p100 constructs, NLR. How it is done: (§1) HEK293T cells were transfected using the reverse transfection method. Transfection mixes containing 100 ng of pSPICA-N2 and 100 ng of pSPICA-N1 plasmids expressing test proteins plus JetPEI® (Polyplus transfection) were dispensed in white 96-well plates. HEK293T cells were then seeded on the DNA mixes at a concentration of 4.2×10^4 cells per well. 48 hours after transfection, cells were washed with 50 μl of PBS and lysed with 40 μl of Renilla lysis buffer (Promega, E2820) for 30 minutes with agitation. Gaussia princeps luciferase enzymatic activity was measured using a Berthold Centro LB960 luminometer by injecting 50 μl per well of luciferase substrate reagent (Promega, E2820) and counting luminescence for 10 seconds. Results are expressed as a fold change normalized over the sum of controls, specified herein as normalized luminescence ratio (NLR) 29. For a given protein pair A/B, NLR=(Gluc1-A+Gluc2-B)/[(Gluc1-A+Gluc2)+(Gluc1+Gluc2-B)]. All interactions were measured in three independent experiments, with each experiment being carried out in triplicate. The expression levels of Gluc1- and Gluc2-fused proteins were checked by Western blotting. 24 hours post-transfection, HEK293T cells were collected, lysed by incubation on ice and centrifuged. Aliquots of cleared supernatants were loaded onto an 10% SDS-PAGE gel.

The target in the next test is T1, G2-p100 1-852. Described as above. How it is done:
as §1

Test [2] has as its target T2, IKKα(10-667) S176E/S180E homodimer, …. As to the kind of experiment: ITC, 25 °C, synthetic peptide into IKK homodimer, 1:1 model. The protocol: (§2) All experiments were performed in ITC buffer (20 mM HEPES pH 8.0, 150 mM NaCl, 1 mM TCEP) unless otherwise stated. […] Just before the ITC experiments, IKKα or IKKβ samples were concentrated, incubated at room temperature for 30 minutes and centrifuged at 11000 g to remove eventual precipitate. The final concentrations of IKKα and IKKβ in the sample cell varied between 22 and 50 μM depending on the measurement. […] The concentration of peptides in the syringe varied between 220 and 975 μM depending on the measurement.
(§3) All ITC experiments were performed at 25° C. The data were fitted to a 1:1 binding model. […] All data were processed using NITPIC software and global fitting of two datasets was carried out using SEDPHAD.

The target in test [3] is T3, IKKβ(1-669) S177E/S181E homodimer, …. Described as above. How it is done:
as §2, §3

Test [4] has as its target T2, IKKα(10-667) S176E/S180E homodimer, …. As to the kind of experiment: ITC. How it is done:
as §2, §3
Background: ITC needs no label: the signal is the heat of the interaction.

Test [5] concerns the target T3, IKKβ(1-669) S177E/S181E homodimer, …. As to the kind of experiment: ITC. The protocol:
as §2, §3

On to B1, for which the binding result in test [1] is “binds”.
As to B2, the binding result with G2-p100 1-852 is on record as “binds”.
Regarding B3, in test [2], the affinity, expressed as Kd, was 350 nM; the “N (binding stoichiometry)” value was 0.65; the TΔS is -4.71 kcal/mol; the ΔG was -8.8 kcal/mol. For the same molecule, in test [2], the ΔH is -13.5 kcal/mol. In test [3], the affinity, expressed as Kd, was 2600 nM; the “N (binding stoichiometry)” value is 0.63; the TΔS is -4.59 kcal/mol; the ΔG is -7.61 kcal/mol. Also, the ΔH in test [3] is -12.2 kcal/mol. Further, the “fold enhancement of affinity against IκBα pep wt” value in test [4] was found to be 25 fold. Moreover, the “fold enhancement of affinity against IκBα pep wt” value in test [5] was 15 fold.

By Kd is commonly meant the free concentration of one partner at which half of the binding sites on the other are occupied at equilibrium, for simple one-to-one binding. Low values mean higher affinity, high ones lower affinity.
